# In patent EP4480961A1 (Consejo Superior De Investigaciones Científicas, dated 2024):
# Substitutions are numbered along the chain they refer to.
# B1: DBP1-L1 chimeric protein (designed binder)
# chain: MADLPQKVSNLSINNKENGGGGGKSSYVPPHLRSRGKPSFERRSPKQKDKVTGGDFFRRAGRQTGNNGGFFGFSKERNGGTSANYNRRGSSNYKSSGNRWVNGKHIPGPKNAKLQKAELFGVHDDPDYHSSGIKFDNYDNIPVDASGKDVPEPILGGRTRGGGGFFNSRNNGSRDYRKHGGNGSFGSTRPRNTGTSNWGSIGGGFRNDNEKNGYGNSNASWWGSATVKFTYQGEEKQVDISKIKMVIRMGQMILFTYDEGGGAMGRGIVSEKDAPKELLQMLEKQ
# notes: Biotinylated and immobilised on streptavidin tips for BLI; biotinylated for microscopy and flow cytometry
# B2: DBP1-L2 chimeric protein (designed binder)
# chain: B1 chain with M245Y, M249F, M252K, L254M, T256K, M264H, R266S, I268M
# notes: Biotinylated and immobilised on streptavidin tips for BLI
# B3: mHP1α-L1 chimeric protein (designed binder)
# chain: MGKKTKRTADSSSSEDEEEYVVEKVLDRRMVKGQVEYLLKWKGFSEEHNTWEPEKNLDCPELISEFMKKYKKMKEGENNKPREKSEGNKRKSSFSNSADDIKSKKKREQSNDIARGFERGLEPEKIIGATDSCGDLMFLMKWKDTDEADLVLAKEANVKCPQIVIAFYEERLTWHAYPEDAENKEKESAKSGSATVKFTYQGEEKQVDISKIKMVIRMGQMILFTYDEGGGAMGRGIVSEKDAPKELLQMLEKQ
# notes: also called mHP1-L1
# B4: mHP1α-L2 chimeric protein (designed binder)
# chain: B3 chain with M214Y, M218F, M221K, L223M, T225K, M233H, R235S, I237M
# notes: Biotinylated for flow cytometry
# B5: mHP1α-R2 chimeric protein (designed binder)
# chain: B3 chain with I216M, M218N, M221R, L223R, T225M, M233I, R235L, I237E
# notes: also called mHP1-R2
# B6: L2 engineered rcSso7d binder (designed binder)
# chain: ATVKFTYQGEEKQVDISKIKYVIRFGQKIMFKYDEGGGAHGSGMVSEKDAPKELLQMLEKQ
# notes: also called clone L2
# B7: L1 engineered rcSso7d binder (designed binder)
# chain: ATVKFTYQGEEKQVDISKIKMVIRMGQMILFTYDEGGGAMGRGIVSEKDAPKELLQMLEKQ
# notes: also called clone L1
# Key:
# [1] = target: T1, soluble recombinant OmpF (outer membrane porin F) from Yersinia ruckeri (Yersinia ruckeri); assay: BLI, biotinylated chimera on streptavidin tips, soluble rOmpF 0.5-2.3 µM, PBS pH 7.4
# T1 construct: also called rOmpF; Y. ruckeri OmpF
# [2] = target: T2, Y. ruckeri OmpF embedded in the outer membrane of E. coli MDS42 ΔompF cells (Yersinia ruckeri); assay: flow cytometry on E. coli expressing Y. ruckeri OmpF, chimera at 0.1 µM and 1 µM, PBS
# T2 construct: whole, on cells; Cells were fixed with PFA for flow cytometry; also called OmpF Y. ruckeri expressing strain; specific target
# [3] = target: T3, wild-type E. coli OmpF embedded in the membrane of E. coli MDS42 cells (Escherichia coli, UniProt P02931 23-362); assay: flow cytometry titration in fresh water
# T3 construct: whole, on cells
# T3 sequence: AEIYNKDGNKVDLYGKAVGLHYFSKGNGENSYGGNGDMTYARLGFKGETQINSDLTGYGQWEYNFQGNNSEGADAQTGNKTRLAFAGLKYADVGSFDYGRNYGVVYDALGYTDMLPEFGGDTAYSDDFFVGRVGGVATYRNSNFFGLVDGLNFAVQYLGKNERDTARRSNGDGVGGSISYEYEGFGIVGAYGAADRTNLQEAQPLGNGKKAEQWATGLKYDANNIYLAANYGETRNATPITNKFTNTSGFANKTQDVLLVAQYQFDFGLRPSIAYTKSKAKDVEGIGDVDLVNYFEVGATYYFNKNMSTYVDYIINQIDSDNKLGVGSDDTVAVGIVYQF
# [4] = target: T2, Y. ruckeri OmpF embedded in the outer …; assay: flow cytometry titration in fresh water
# [5] = target: T3, wild-type E. coli OmpF embedded in the …; assay: flow cytometry titration in PBS, 5 concentrations 0.001-3 µM, […]
# [6] = target: T2, Y. ruckeri OmpF embedded in the outer …; assay: flow cytometry titration in PBS, 5 concentrations 0.001-3 µM, normalised
# ovalbumin = target: T4, ovalbumin (UniProt P01012 2-386); assay: cross-reactivity test, yeast display flow cytometry
# T4 construct: also called ovoalbumin
# T4 sequence (looked up): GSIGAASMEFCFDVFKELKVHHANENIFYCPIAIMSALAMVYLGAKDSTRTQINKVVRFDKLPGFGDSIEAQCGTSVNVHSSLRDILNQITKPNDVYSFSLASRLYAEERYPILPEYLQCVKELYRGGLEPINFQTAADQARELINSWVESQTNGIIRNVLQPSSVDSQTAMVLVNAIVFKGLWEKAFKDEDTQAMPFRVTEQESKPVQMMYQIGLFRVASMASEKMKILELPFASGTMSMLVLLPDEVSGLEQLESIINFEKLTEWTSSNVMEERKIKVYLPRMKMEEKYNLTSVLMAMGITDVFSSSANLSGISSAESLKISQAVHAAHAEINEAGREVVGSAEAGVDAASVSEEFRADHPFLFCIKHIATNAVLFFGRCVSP
# human seroalbumin = target: T5, human seroalbumin (human, UniProt P02768 25-609); assay: as above
# T5 construct: also called hSA
# T5 sequence (P02768 25-609): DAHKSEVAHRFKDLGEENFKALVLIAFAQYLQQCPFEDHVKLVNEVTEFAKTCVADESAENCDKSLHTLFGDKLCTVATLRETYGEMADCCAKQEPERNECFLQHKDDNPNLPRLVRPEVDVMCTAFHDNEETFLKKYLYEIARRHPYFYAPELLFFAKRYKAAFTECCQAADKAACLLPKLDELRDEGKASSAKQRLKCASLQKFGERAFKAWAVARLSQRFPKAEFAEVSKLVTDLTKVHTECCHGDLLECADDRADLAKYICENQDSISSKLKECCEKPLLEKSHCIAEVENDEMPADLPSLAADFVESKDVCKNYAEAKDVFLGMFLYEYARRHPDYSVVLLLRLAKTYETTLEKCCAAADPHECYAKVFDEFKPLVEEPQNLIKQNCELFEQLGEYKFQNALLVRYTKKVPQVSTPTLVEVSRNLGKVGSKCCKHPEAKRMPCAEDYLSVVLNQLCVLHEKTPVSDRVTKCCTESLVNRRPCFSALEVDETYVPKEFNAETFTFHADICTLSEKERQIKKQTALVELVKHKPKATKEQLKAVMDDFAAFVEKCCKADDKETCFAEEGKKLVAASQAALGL
binder,measurement,setting,value
B1,Kd,[1],119 nM
same,percentage of double positives,[2],> 75%
B2,Kd,[1],26 nM
same,percentage of double positives,[2],> 75%
B3,Kd,[3],130 nM
same,Kd,[4],140 nM
B4,percentage of double positives,[2],> 75%
B5,Kd,[3],280 nM
same,Kd,[4],300 nM
same,Kd,[5],82 nM
same,Kd,[6],75 nM
B6,binding result,ovalbumin,no binding (tested: 1 µM)
same,binding result,human seroalbumin,no binding (tested: 1 µM)
B7,binding result,human seroalbumin,no binding (tested: 1 µM)
